How the values were obtained:
[1] = target: T1, CBD-intein-S-TEV site-liraglutide fusion protein
T1 chain: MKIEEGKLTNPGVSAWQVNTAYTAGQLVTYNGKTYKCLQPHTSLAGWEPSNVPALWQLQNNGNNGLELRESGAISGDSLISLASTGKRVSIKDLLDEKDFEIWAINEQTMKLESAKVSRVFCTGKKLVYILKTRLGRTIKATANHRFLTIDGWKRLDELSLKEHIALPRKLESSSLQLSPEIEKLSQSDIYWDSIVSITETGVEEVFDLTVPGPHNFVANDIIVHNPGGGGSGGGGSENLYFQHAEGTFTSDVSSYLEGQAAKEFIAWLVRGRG

[2] = target: T2, CBD-intein-Spacer(S)-TEV site-teriparatide fusion protein
T2 chain: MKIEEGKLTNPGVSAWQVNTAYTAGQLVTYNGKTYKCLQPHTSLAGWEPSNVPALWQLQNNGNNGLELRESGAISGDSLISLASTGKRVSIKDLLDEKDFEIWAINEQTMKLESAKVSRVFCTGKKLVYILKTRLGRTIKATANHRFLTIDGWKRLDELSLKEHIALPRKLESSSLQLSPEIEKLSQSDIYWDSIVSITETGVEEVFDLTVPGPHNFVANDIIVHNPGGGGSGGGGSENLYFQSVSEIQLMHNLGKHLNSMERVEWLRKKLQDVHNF

B1: TEV protease (protein)
chain: GESLFKGPRDYNPISSTICHLTNESDGHTTSLYGIGFGPFIITNKHLFRRNNGTLLVQSLHGVFKVKNTTTLQQHLIDGRDMIIIRMPKDFPPFPQKLKFREPQREERICLVTTNFQTKSMSSMVSDTSCTFPSSDGIFWKHWIQTKDGQCGSPLVSTRDGFIVGIHSASNFTNTNNYFTSVPKNFMELLTNQEAQQWVSGWRLNADSVLWGGHKVFMSKPEEPFQPVKEATQLMNELVYSQ
[1]
  TEV protease-mediated cleavage of the fusion protein (SDS-PAGE, pH 8.0): cleavage by the TEV protease resulted in the release of liraglutide
[2]
  TEV protease-mediated cleavage of the fusion protein (SDS-PAGE and western blot, pH 8.0 and pH 7.0): cleavage by the TEV protease resulted in the release of teriparitide
